Test results from patent US20240207311A1, “TUMOR INFILTRATING LYMPHOCYTES THERAPY” (Alethia Biotherapeutics Inc., priority 2021, published 2024).
“Also recorded” adds a separate entry of the source.

Assays:
Assay type in all cases: in vivo, Balb/c mice
[1] = system: 4T1 mouse mammary carcinoma cells; test: Number of metastatic lung nodules in 4T1-implanted animals (Example 2); conditions: monotherapy IP for 5 weeks (Group 2 docetaxel 10 mg/kg weekly; Group 5 AB-16B5 twice weekly); counted Day 37
Description: Five groups, each consisting of 10 female Balb/c mice were assigned to this study (see Table 1 below). All animals received subcutaneous implantation of 4T1 mouse mammary carcinoma cells in the 4th inguinal mammary gland. Treatment was initiated on the day of implantation (defined as Day 1). Animals from Group 1 (Gr. 1) received IP treatment of saline vehicle control twice a week for the duration of the study. Animals from Group 2 (Gr. 2) received 10 mg/kg of docetaxel weekly for five weeks by IP administration. Animals from Group 3 (Gr. 3) received 10 mg/kg of docetaxel weekly for two weeks and 10 mg/kg of AB-16B5, twice weekly for five weeks. Animals from Group 4 (Gr. 4) received 10 mg/kg of docetaxel weekly and 5 mg/kg of 16B5 twice weekly each over the course of a five weeks treatment. Animals from Group 5 (Gr. 5) received AB-16B5 twice weekly for five weeks. On Day 36, the primary tumors were excised and on Day 37, the animals were sacrificed and the number of grossly visible metastatic nodules on the surface of the lungs was counted.

[2] = system: 4T1 primary tumors; test: CD45+ immune cells purified from excised 4T1 primary tumors (Example 2); conditions: monotherapy (Group 2 docetaxel; Group 5 AB-16B5); primary tumors excised at Day 16
Description: The primary tumors excised at Day 16 post implantation, were processed with collagenase and hyaluronidase and immune cells were purified by positive selection using magnetic latex beads coated with an anti-CD45 antibody. The purified cells were transferred into small petri dishes containing culture medium supplemented with IL2 and IL7 to perform phenotypic analyses.

[3] = system: 4T1 lung metastases; test: Immunohistochemistry of lung metastases in 4T1-implanted mice (Example 1); conditions: 10 mg/kg IP thrice a week
Description: Balb/c mice were orthotopically implanted with 5×10^5 4T1 cells in the 4th mammary fat pad. Animals received IP saline treatment thrice weekly. The primary tumor was surgically removed at Day 16 post-implantation. The animals were sacrificed at Day 36 and the lungs were excised. Tissues were fixed in paraformaldehyde and processed for paraffin embedding. Tissue sections were probed with anti-mouse CD3, anti-mouse CD8 and anti-mouse B220 antibodies. […] Results presented in FIG. 1 indicate that the 4T1 lung metastases create an immune cold microenvironment which prevents the infiltration of B and T lymphocytes in tumors. Delineated regions indicate that CD3 and CD8 T lymphocytes are restricted in the tumor margin as a consequence of EMT.
Animals bearing 4T1 tumors were treated with the AB-16B5 antibody (murine 16B5) thrice a week IP at 10 mg/kg. The primary tumor was surgically removed at Day 16 post-implantation. The animals were sacrificed at Day 36 and the lungs were excised. Tissues were fixed in paraformaldehyde and processed for paraffin embedding. Tissue sections were probed with anti-mouse CD3, anti-mouse CD8 and anti-mouse B220 antibodies.

Row | Molecule | metastatic lung nodules [1] | CD45+ immune cells in primary tumors [2] | plasmocytes penetration in tumors ([3]; Day 36) | T lymphocyte infiltration of lung metastases ([3]; Day 36, anti-CD3, anti-CD8 staining) | lung metastases (number and size) ([3]; lungs excised Day 36, FIG. 2)
1 | CC(=O)O[C@@]12CO[C@@H]1C[C@H](O)[C@@]1(C)C(=O)[C@H](O)C3=C(C)[C@@H](OC(=O)[C@H](O)[C@@H](NC(=O)OC(C)(C)C)c4ccccc4)C[C@@](O)([C@@H](OC(=O)c4ccccc4)[C@H]21)C3(C)C [docetaxel] | as many metastatic lung nodules as the saline control group; also recorded: relatively ineffective | very few CD45+ were present |  |  | 
2 | AB-16B5: anti-clusterin antibody, murine 16B5 (VL SEQ ID NO:7, VH SEQ ID NO:8), used in the mouse studies (antibody, V domains shown, Murine 16B5 VH; Murine 16B5 VL) VH: EVQLQQSGAELVKPGASVRLSCTTSGFNIKDIYMHWVKQRPEQGLEWIGRIDPAYGNTKYDPKFQGKATITADTSSNTAYLQLSSLTSEDTAVYYCARRYDTAMDYWGQGTSVTVSS VL: DIVMSQSPSSLAVSAGEKVTMSCKSSQSLLNSRTRKNYLAWYQQKPGQSPKLLIYWASTRESGVPDRFTGSGSGTDFTLTISSVQAEDLAVYYCKQSYNLWTFGGGTKLEFK | less metastatic lung nodules than the saline-control-treated mice | more immune cells | evidence of plasmocytes penetration | densely infiltrated with CD3 and CD8 T cells | fewer and much smaller lung metastases
